Reference: the nanobody polyreactivity screen of Harvey et al. (2022)

Assay: yeast display, Sf9 membrane polyspecificity reagent, FACS + sequencing; frameworks hold sequencing errors
How it was run: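 Genes from sorted yeast were amplified by colony PCR, read by MiSeq 2 × 250 sequencing and filtered on CDR length. These cells carried a synthetic nanobody library in Saccharomyces cerevisiae BJ5465 and were sorted by FACS into low and high (top ~1%) gates on anti-HA and streptavidin fluorescence. Polyreactivity is labelled according to the gate of origin.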

Row | Sequence | polyreactivity (PSR sort gate)
1 | QVQLGESGGGLVQAGGSLRLRCAASGYIITYNAMGWYRQAPGKERELVAAISSGGSTNYADSVKGRFTISRDNAKITVYLQMNSLKPEDTAVFYCAAPVWTYDDYWGQGSQVTVSS | low polyreactivity
2 | QVQLVESGGGVVQAGGSLRLSCAASGITFQYYDMGWFRPAPGKERELVAAISWSTDMTYADSVKGRFTISRDNAKNTDYLQMNSLKPEDTAVYYCAASTYEYTSYDYWGQGTQVTVSS | low polyreactivity
3 | QVQLQESGGGLVQAGGSLRLSCAASGTISLGDNMGWYRQAPGKEREFVATISVGGITYYVDSVKGRFTISRDIAKNTVYLQMNSLKPEDTAVYYCAALDIYYFRYYYWGQGTQVTVSS | low polyreactivity
4 | QVQLVESGGGLVQAGGSLRLSCAASGGTFVYYAMGWYRQAPGKERELVAAINWSGGSTYYADSVKGRFTISRDNAKNTVYLQMNSLKPEDTAVLLLQRSGLRRSGVWFDYWGQGTQVTVSS | low polyreactivity
5 | QVQLVESGGGLVQAGGSLRLSCAASGRIFTFYAMGWYRQAPGKERELVAAISSGGSTYYADSVKGRFTISRDNAKNTVFLQMNILKPEDTAVYYCAAVPVWYADYDYWGQGTQVTVSS | low polyreactivity
6 | QVQLVESGGGLVQAGGSLRLSCAASGSIFWGYAMGWYRQAPGKERELVAVISRGGSTYYADSVKGRFTISRDNAKNTVYLQMNSLKPEDTAVYYCADSSSWFYSPEYDYWGQGTQVTVSS | low polyreactivity
7 | HDQLVETGGGLVQAGGSLRLSCAASGFTFRAYAMGWYRQAPGKEREFVAAISRRGGSTSYADSVKGRFTISRDNAKNTVYLQMNSLKPEDTAVYYCAATYQILTTSAHDSWGQGTQVTVSS | high polyreactivity
8 | QVQHVESGGGIVQAGGSLRLSCAASGSTFFGNGMGWYRQAPGKERELVAAISGGGSTHYADSVKGRFTSSRDNAKNTVYVQMNSLKPEDTAVYYCSPSRDTVGRGPIQRDYWGQGTQVTVSS | low polyreactivity
9 | QVQLVESGGGLVQAGGSLRLSCAASGSIFAYYAMGWYRQAPGKEMELVAAITRGGTTYYADSVKGRFTISRDNAKNTVYLQMNSLKPEDTAVYYCAVYYYSGTAGYRYGYWGQATQVTVSS | high polyreactivity
10 | QVQLVESGGCLVQAGGSLRLSCAASGRIFYNYAMGWYRQAPGKERELVAAISGSGGSTYYADSVKGRFTISRDNAKNTVYLQMNSLKPEDTAVYYCSTSGPQYYSRNFDYWGQGTQVTVSS | low polyreactivity
11 | QVQLVESGGGLVQAGGSLRLSCAASGFTFGKYAMGWYRPAPAKERELVAAISRSGGSTYYADSVKGRFTISRDIAKNTVYLQMNSLKPEDTAVYYCAAYHPIQEYDYWGQGTQVTVSS | high polyreactivity
12 | QVQLEESGGGLVQAGGSLRLSCAASGFTFYRYAMGWYRQAPGKERELVAAITWSGGSTYYADSVKGRFTISRDNAKNTVYLQMNSLKPEDTGVYYCNAAAYYPTNYGGYLFEYWGQGTQVTVSS | low polyreactivity
13 | QVQLVESGGGIVQAGGSLRLSCSASGSIFPLDGMGSYRQAPGKERELVAAISIGGRTNYADSVKGRFTISRDNAKNTVYLQMTSLKPEDTAVYYCNAVSKFVYRNRILWYDYWGQGTQVTVSS | high polyreactivity
14 | QVQLVESGGGLVQAGGSLRLSCAASGRILYDYDMGWYRQAPGKERELVATISRGGGTNYADSVKGRFTISRDNAKNTVYLQMNSLKPEDTAVYYCAADRWYSRYTRYGYWGQGTQVTVSS | low polyreactivity
15 | QVQLVESGGGLVQAGGSLRLSCAASGRISGRYAMGWYRQAPGKERELVAAITGRGGGTFYADSVKGRFTISRDNAKNTVYLQMNSLKPEDTAVYYCNTDYGSSYNYCGQGTQVTVSS | high polyreactivity
16 | QVQLVESGGGLVQAGGSLRLSCAASGRTFSRYAMGWYRQAPGKERELVASMTRRGGRTYYADSVKGRFTISRDNAKNTVYFQMTSLKPEDTAGYYCNATSQIPWSSYYYWGQGTQVTVSS | high polyreactivity
17 | QVQLVESGGGLVQAGGSLRLSCAASGFIFAGYALGWYRQAPGKERELVAAISSGGGSTYYADSVKGRFTISRDNAKNTGYLQMNSLKPEDTAVYYCAARRLYPPGYYYWGQGTQVTVSS | high polyreactivity
18 | QVQLVESGGGLVQAGGSLRLSCAASGSTFQAKAMGWYRQAPGKERELVAAISWRGSSTYYADSVKGRFTISRDNAKNTVYLQMNSLKPEDPAVYYCAAASSGSYYRYEYWGQGTQVTVSS | high polyreactivity
19 | QVQLVESGGGLVQAGGSLRLRSAASGSIIPEYVMGWYRQAPGKERELVAAISWSGGSTYYADSVKGRFTISRDNAKNTDYLQMNSLKPEDTAVYYCNRVPSWRIDYDYWGQGTQVTVSS | low polyreactivity
20 | QVQLQESGGGLVQASGSLRLSCAASGNIFPDYVMGWYRLAPGKEREFVANITGGSTTNYADSVKGRFTISRDNAKNTVYLQMNSLNPEDTAVYYCAVNFGTVVLYLYWGQGTQVTVSS | high polyreactivity
21 | QVQLVESGGGLVQAGGSLRLICAASGYTFEYNAMGWSRQAPGKEREFVATITASGDSTYYADSVKGRFTISRDNAKNTVYLQMNSLKPEDTAVYYCATEKRDVYFTAKYDYWGQGTQVTVSS | low polyreactivity
22 | QDQLVESGGGLVQAGGSLRLSCAASALTFVRYAMGWYRQAPGKERELVAAISSGGSTNYADSVKGSFTISRDNAKNTVYLQMNSLKPEDSAVYYCAAVRYRYPHTMYYWGLGTQVTVSS | high polyreactivity

Row | Sequence | polyreactivity (PSR sort gate)
23 | QVQLVESGGGLVQAGGSLRLSCAASGRTFILYAMGWYRQAPWKERELVAAITRRGGRTYYADSVKGRFTISRDNAKNTVYLQMNSLKREDTAVYYCAADQYYYTQPSDMDYWGQGTQVTVSS | high polyreactivity
24 | QVQLVETAGGLVHAGGSLRLSCADSGRIFERNAMGWNRQSPGKERELVARITSGGGTYYADSVKGRFTISRDNAKNTVYLQMNSLKPEDTAVYYCAVQYLYRKYRRYDYWGQGTQVTVSS | high polyreactivity
25 | QVQLVESGGGLVQAGGSLRLICAASGFTFGEYAMGWYRKAPGKERELVAGISWSGGGTYYADSVKGRFTISRDTAKNTVYLQMNCLKPEDTAVYYCAKAGYYFFQQWQVDYWGQGTQVTVSS | low polyreactivity
26 | QVQLVESGGGLVQAGGSLRLSCAASGITFVDYAMGWYRQAPGKEREFVAAISWSGGSTYYADSVKGRFTISRDNAKNTVYLQMNSLKPEDTAVYYCAARPKFGTAHRYYYWGQGTQVTVSS | high polyreactivity
27 | QVQLVESGGGLVQAGGSLRLSCAPSGRNYDRNAMGWYRQAPGKERELVARIDPGDDTNYADSVKGRFTISRDNAKNTVYLQMNSRKPEDTAVYDCASDPDYFLYRTAYYEFDYWGQGTQVTVSS | low polyreactivity
28 | QVQLVESGGGLVQAGGSLRLSCAASGRTFPRYAMGWYRQATGKERELVAAISVRAGITYYADSVKGRFTISRDNAKNTVYLQMNSLKPEDTAVYYCAKDHWTTSYDEGDYWGQGTQVTVSS | low polyreactivity
29 | QVQLVESGGGLVQAGGSLRLICAASAFNFRYYVMGWYRQAPGKERELVAVISYSGGSTYYADSVKGRFTISRDNAKNTVYLQRNSMKPEDTAVYYCDARYYVATSSIYYYWGQGTQVTVSS | high polyreactivity
30 | QVQLVESGGGLVQAGGSLRLSCAASGSTFPPYAMGWYRQAPGKERDLVADITRRGASTYYADSVKGRFTISRDNAKNTVYLQMNSLKPEDTAVYYCAARYYYQYYSGFDYWGQGTQVTVSS | high polyreactivity
31 | QDQLVESAGGLVQAGGSLRLSCAASGRIFVFNAMGWYIQAPGKERELVAGINRGASTYYADSVKGRFTISRDNAKNTVYFQMNSLKPEDTAVYYCAADNFWWTKLYYWGQGTQVTVSS | high polyreactivity
32 | QVQLVESGGGLVQAGGRLRLSCAASGRIFPDNTMGWYRQAPGKERELVAVITYSGGSTYYADSVKGRFTISRDNAKNTVYLQMNSLKPEDTAVYYCAARDYYIWFAEVDYWGQGTQVTVSS | low polyreactivity
33 | QVQHVESGGGLVQAGGSLRLSCAASGGTFGSNTMGWYRQARGKERELVAAITSGVSTYYADSVKGRFTISRDNAKNTVYLQMNSLKPEDTAVFYCAADTTQVQGVEGDYWGQGTQVTVSS | low polyreactivity
34 | QVQLVESGGGLVQAGGSLRLSWAASGRIFYFYAMGWYRQAPGKERELVASISSGGITNYADSVKGRFTISRDNAKNTVYLQMNSLKPEDTAVYYCNAGYASGKYSGGYLYGYWGQGTQVTVSS | low polyreactivity
35 | QVQLVESGGGLVQAGGSLRLSCAASGRIFSYNAMGSDRQAPGKERELVADISSGGSTYYADSVKGRFTISRDNAKNSVYLQMNSLKPEDSAVYYCNADYYAFPWTNEYWGQGTQVTVSS | high polyreactivity
36 | QVQLVESGGGLVQAGGSLRLSCAASGNIFAWYAMGWYRQAPGKERELVADISSRGGSSYYADSVKGRFTISRDTAKNTVYLQMNSLKPEDTAVYYCAAVWYWTQDYDYWGQGTQVTVSS | low polyreactivity
37 | QVQLVESGGGLVQAGGSLRLSCAASGLTSHSYAMGWYRQAPGKERELVAAINGDGGSTYYADSVKGRFTISRDNAKNTVYLQMNSLKPEDTAVYYCAAQGNRPRGEYDYWGQGTQVTVSS | high polyreactivity
38 | QVQLVESGGGLVQAGGSLRLSCAASGSTFDDYAMGWYRQAPGKERELVAAISYSGGSTYYADSVKGRFTISRDNAKNTVYLQMNSLKPEDTAVYYCAADDLYTDYETWWRRGDYCGQGTQVTVSS | low polyreactivity
39 | QVQHEESGGGLFQAGGSLRLICAASGSIFDYYAMGWYRQAPGKERELVSTYYADSVKVRFTISRDNAKNTVYLQLNSLKPEDTAVYFCAKDRGTTGIPDGPAASLYGYVYWGQGTQVTVSS | low polyreactivity
40 | QVQLEESGGGLVQAGGSLRLSCAASGLTFGDYTMGWYRQAPWKERELVAAITSRGGRTYYADSVKGRFTISRDNAKNTVYLQMNSLTPEDTAVYYCAADDLRIKRVGFDYWGQGTQVTVSS | high polyreactivity
41 | QVQLVESGGCLVQAGGSIRLSCAASGSILGFNAMGWSRQAPGKERELVAAISTSGSSTYYADSVKGRFTISRDNATISVYLLMNSLIPEDTAVYYCAKRRGGSRPYYYWGQRTQVTVSS | high polyreactivity
42 | QVQLVESGGGLVQAGGSLRLNCAASGSTFNRNAMGWYRQAPGKERELVATISSGGSTNYADSVKGRFTITRDNAKNTVYLLMISLYPEDTWVYYCAKRSLYRYYYWGQGSQVTVSS | high polyreactivity
43 | QVQLVESGGGLVQAGGSLRLSCAASGRIFSYYAMGWYRQAPGKEREMVAAISGNGGSTYYADSVKGRFTISRDNAKNTVYLQMNSLKPEDTAVYYCAADWWSSDWAYLYPYSYDYWGQGTQVTVSS | low polyreactivity
